This note sets out measurements from patent US20100254979A1 (CISTHERA, published 2010).

For test [1], the target named is PAI-1 (immobilised antigen of the P-ELISA of FIG. 13, species not stated). Kind of test: P-ELISA on immobilised biotinylated PAI-1 (species not stated), A450; antibody spiked into plasma with EDTA. Background: In an ELISA, binding on a coated surface is turned into a signal by an enzyme label.
The target of test [2] is PAI-1 (antigen of Example 11, species not stated) (Homo sapiens (Human)) (UniProt P05121). Nature of the test: biosensor kinetics, 25 C, global 1:1 fit.
Test [3] deals with PAI-1 (immobilised antigen of the P-ELISA of FIG. 13, species not stated). Kind of test: P-ELISA on immobilised biotinylated PAI-1 (species not stated), A450; antibody without plasma, with or without EDTA.
The target in the next test is T1, rat PAI-1 (rat, UniProt P20961 24-402, n-terminal biotin label in the P-ELISA).
T1 sequence (looked up): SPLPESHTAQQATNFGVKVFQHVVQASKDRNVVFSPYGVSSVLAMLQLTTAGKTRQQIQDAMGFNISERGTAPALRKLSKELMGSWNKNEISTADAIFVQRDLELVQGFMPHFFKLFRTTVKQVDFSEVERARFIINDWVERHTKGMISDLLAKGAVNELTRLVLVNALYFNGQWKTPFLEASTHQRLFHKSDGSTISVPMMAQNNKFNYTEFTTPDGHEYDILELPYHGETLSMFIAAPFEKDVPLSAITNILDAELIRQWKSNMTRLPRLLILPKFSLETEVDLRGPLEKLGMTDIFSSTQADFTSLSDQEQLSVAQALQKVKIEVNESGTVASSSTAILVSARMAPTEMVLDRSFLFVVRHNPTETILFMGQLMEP
Kind of test: P-ELISA: biotinylated PAI-1 (panel title: Rat PAI-1) on Neutravidin-coated plate, HRP-conjugated secondary antibody, O.D. 450. As to the method:
All reagents are brought to room temperature (18-23° C.) and dilutions are made in Wash Buffer (1× TBS, 0.1% BSA, 0.05% Tween). Briefly, protocol steps are as follows: [0952] Add 100 μL of Neutravidin™ Pierce #31000 (0.5 μg/ml in TBS) to 96-well Immulon-4 plates. [0953] Incubate 1 hour at room temperature (RT). [0954] Wash wells 3 times with 200 μl Wash Buffer. [0955] Add 50 μL of biotinylated biomolecule (0.06 nM) Incubate 1 hour at RT. [0956] Wash plate 3 times in Wash Buffer. [0957] Add 100 μL of 1° Ab Incubate 30 min RT [0958] Wash plate 3 times in Wash Buffer. [0959] Add 50 μL of 2° Ab-HRP (1:10,000) Incubate 30 min RT [0960] Wash plate 4 times in Wash Buffer. [0961] Add 100 μl TMB Reagent (substrate). Incubate at room temperature. [0962] Add 100 μL of 2 M Sulfuric Acid to stop development of the substrate. [0963] Plates were read using a 450 nm filter with a 615-620 nm filter as the reference.
Binding of CT140 to rat, mouse, rabbit and human PAI-1 was determined by P-ELISA (see FIG. 12). The relative affinity of CT140 is human=rabbit>mouse>rat (FIG. 12A, FIG. 12B, FIG. 12C and FIG. 12D, respectively).

A further test concerns the target T2, mouse PAI-1 (mouse, UniProt P22777 23-402, limits assumed, n-terminal biotin label in the P-ELISA).
T2 construct: also called murine PAI-1
T2 sequence (looked up): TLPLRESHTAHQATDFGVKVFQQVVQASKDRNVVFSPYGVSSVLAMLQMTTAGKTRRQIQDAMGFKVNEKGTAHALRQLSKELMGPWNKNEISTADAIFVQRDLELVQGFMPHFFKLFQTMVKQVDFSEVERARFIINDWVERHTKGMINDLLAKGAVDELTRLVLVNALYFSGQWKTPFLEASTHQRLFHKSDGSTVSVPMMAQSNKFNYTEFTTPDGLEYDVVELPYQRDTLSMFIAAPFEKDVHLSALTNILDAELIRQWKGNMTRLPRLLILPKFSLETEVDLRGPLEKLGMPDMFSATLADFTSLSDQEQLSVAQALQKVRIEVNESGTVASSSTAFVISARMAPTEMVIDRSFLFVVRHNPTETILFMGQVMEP
Kind of test: P-ELISA.

Test [4] concerns the target PAI-1 (antigen of Example 11, species not stated) (Homo sapiens (Human)) (UniProt P05121). Nature of the test: biosensor kinetics, mAb captured on anti-human IgG surface at 5 densities, 25 C, global 1:1 fit.
Test [5] has as its target human PAI-1 (plasminogen activator inhibitor-1) (human, UniProt P05121 24-402, n-terminal biotin label in the P-ELISA). Nature of the test: cell-based or functional assay.

Sequence of PAI-1 (immobilised antigen of the P-ELISA of FIG. 13, species not stated) (P05121 24-402): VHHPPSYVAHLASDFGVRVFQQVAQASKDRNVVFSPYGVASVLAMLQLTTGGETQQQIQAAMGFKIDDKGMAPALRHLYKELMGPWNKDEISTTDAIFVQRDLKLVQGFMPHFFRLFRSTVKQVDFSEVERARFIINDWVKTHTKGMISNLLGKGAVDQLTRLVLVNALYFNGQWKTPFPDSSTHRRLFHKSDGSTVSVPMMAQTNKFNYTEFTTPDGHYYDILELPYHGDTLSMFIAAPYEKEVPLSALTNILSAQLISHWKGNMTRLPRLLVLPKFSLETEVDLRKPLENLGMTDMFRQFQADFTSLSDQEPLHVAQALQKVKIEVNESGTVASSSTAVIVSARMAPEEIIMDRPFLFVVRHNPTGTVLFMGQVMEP
Sequence of human PAI-1 (plasminogen activator inhibitor-1) (P05121 24-402 limits assumed): as the sequence (P05121 24-402) above

B1: murine monoclonal antibody 33B8 (MA-33B8) (antibody, V domains shown)
VH: QIQLVQSGPELKKPGKTVTISCKASGYTFTNYGMNWVKQAPGKGLKWMGWINTYTGEPTYTDDFKGRFAFSLDTSASTAYLQISNLKNEDTATYFCAKDVSGFVFDYWGQGTTVTVSS
VL: DIVMTQSPSSLAVSVGEKVTMSCKSSQSLLNIIKQKNCLAWYQQKPGQSPKLLIYWASTRESGVPDRFTGSGSGTDFTLTISSVKAEDLAVYYCQQYYSYPYTFGGGTKLEIK
In test [1], B1 showed a concentration for a half-maximal effect (EC50 (read off the curve)) of 0.4 µg/mL. In test [2], this molecule yielded a Kd of 8.01 nM, a koff of 0.00314 s⁻¹ and an association rate constant (kon) of 393000 M⁻¹ s⁻¹. The molecule further had an EC50 (read off the curve) in test [3] of 0.1 µg/mL.

B2: CT140 (humanized 33B8 anti-PAI-1 antibody, IgG4 with IgG1 hinge) (antibody, V domains shown)
VH: QVQLVQSGAEVKKPGASVKVSCKASGYTFTNYGMNWVRQAPGQGLEWMGWINTYTGEPTYTDDFKGRFTMTLDTSISTAYMELSRLRSDDTAVYYCAKDVSGFVFDYWGQGTLVTVSS
VL: DIVMTQSPDSLAVSLGERATINCKSSQSLLNIIKQKNCLAWYQQKPGQPPKLLIYWASTRESGVPDRFSGSGSGTDFTLTISSLQAEDVAVYYCQQYYSYPYTFGQGTKLEIKR
notes: The IgG4 hinge was replaced by that of IgG1; also called hP-1; humanized mAb CT140
As for B2, the binding result with rat PAI-1 is on record as “binds”. The “fold greater affinity relative to the parent mouse anti-PAI-1” value with mouse PAI-1 is over 10 fold. In addition, in test [4], the Kd came out at 0.015 nM, the dissociation rate constant (koff) is 8e-06 s⁻¹ and the kon was determined as 530000 M⁻¹ s⁻¹. Moreover, the concentration for a half-maximal effect (EC50 (read off the curve)) in test [5] was about 10 µg/mL.

A word on the EC50 (read off the curve): it is the concentration giving half of the maximal effect. A high value points to weaker potency. As usually defined, the Kd is a measure of binding affinity in units of concentration. The low end stands for higher affinity, the high end for lower affinity. A word on the koff: it is the first-order rate constant of dissociation. Read a high koff as fast dissociation. As usually defined, the kon is a measure of how fast the partners come together. A low value points to slower complex formation.
